In patent publication US20230375537A1:

Key:
[1] = target: HER2 (as partner of the 'natural' / 'original' dissociation constants) (UniProt P04626); test: natural dissociation constant of the bought molecule outside the sensor; method not stated
[2] = target: HER2 (as partner of the 'natural' / 'original' dissociation constants) (UniProt P04626); test: natural dissociation constant of the molecule outside the sensor; method not stated

Kd [1] [nM]	Kd [2] [nM]	Substance
0.032		Anti-Her2 Affibody Molecule (anti-Her2 affibody molecule, Abcam) (designed binder)
	0.106	Z342-EGFP-Histag (a molecule having a polyhistidine tag and an anti-HER2 affibody to which a fluorescence group EGFP is fused) (designed binder)
